# Assay results published in patent publication US20190309092A1.
# Target: TNFα (UniProt P01375)
# Assay: SPR, Biacore T100, single-cycle kinetics, 1:1 Langmuir fit; Target 1 column
# Sequence of UniProt P01375 (P01375 77-233 limits assumed): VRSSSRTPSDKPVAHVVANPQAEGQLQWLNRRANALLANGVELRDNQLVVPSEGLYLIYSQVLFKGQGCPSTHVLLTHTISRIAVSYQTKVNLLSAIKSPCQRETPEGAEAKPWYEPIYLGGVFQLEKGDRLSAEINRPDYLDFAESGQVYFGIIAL
substance,measurement,value
Humira IgG(Full) (antibody),Kd,0.0643 nM
